Our source for the inhibition of conditioned-medium-driven BaF3/Zalpha11 cell growth; soluble receptor concentration giving complete inhibition, titration of soluble receptor; lowest concentration completely inhibiting BaF3/Zalpha11 growth and proliferation of BaF3/MPL-zalpha11 cells (Alamar Blue), fold over background (fold over background) values is US20030148447A1.

Assay [1] addresses factor present in the activated CD3+ selected human T-cell conditioned media. The experiment in a line: cell-based or functional assay.
The target in assay [2] is MPL-zalpha11 chimera (MPL extracellular and transmembrane domains fused to the zalpha11 intracellular signaling domain) (human). The experiment in a line: cell-based or functional assay.

For the substance “zalpha11-Fc4 soluble receptor (zalpha11 extracellular domain fused C-terminally to human IgG Fc, Fc4) (from UniProt Q9HBE5 20-237) (Fc fusion)”, in assay [1], the inhibition of conditioned-medium-driven BaF3/Zalpha11 cell growth; soluble receptor concentration giving complete inhibition amounted to 10 µg/mL and the titration of soluble receptor; lowest concentration completely inhibiting BaF3/Zalpha11 growth is 1.5 µg/mL. thrombopoietin (TPO) (ligand) showed a proliferation of BaF3/MPL-zalpha11 cells (Alamar Blue), fold over background (fold over background) in assay [2] of 10.
